{"source": "paper PMC4615642", "about": "(RNA Biology, 2015)", "binders": {"B1": {"name": "She3p-His6 (full-length She3p) (natural protein, S. cerevisiae, UniProt P38272 1-425, looked up)", "chain": "MSDQDNTQTSSSKLAPHHNIFMANLESSPTKDRNTSSQNASSSRVIESLHDQIDMLTKTNLQLTTQSQNLLSKLELAQSKESKLLENLNLLKNENENLNSIFERKNKKLKELEKDYSELSNRYNEQKEKMDQLSKLAKNSSAIEQSCSEKLQNMEVNYNSLLESQNLYRDHYSDEISKLNEKIGLLELELSNQNLNYGSDTSSNSDIELNLNKFNDSVKDLKSLETEKDSKLSKIITHSLDELNLQSWLNLYQTNENLISTFAEKMDLKDVLKRNDEKISNKGAVVQTLKKNVQTQVESNNADALSSNNAQDMLPIKMVKLRKTPNTNDSSSNGNSSNNKRRSFYTASPLLSSGSIPKSASPVLPGVKRTASVRKPSSSSSKTNVTHNNDPSTSPTISVPPGVTRTVSSTHKKKGNSMVVHGAQS"}}, "key": {"SEC-MALS": {"target": "the molecule itself", "test": "SEC-MALS"}, "[1]": {"target": "T1, Myo4p-C (C-terminal cargo-binding region of Myo4p, amino acids 923-1471, His6 fusion) (S. cerevisiae, UniProt P32492 923-1471)", "T1 sequence (looked up)": "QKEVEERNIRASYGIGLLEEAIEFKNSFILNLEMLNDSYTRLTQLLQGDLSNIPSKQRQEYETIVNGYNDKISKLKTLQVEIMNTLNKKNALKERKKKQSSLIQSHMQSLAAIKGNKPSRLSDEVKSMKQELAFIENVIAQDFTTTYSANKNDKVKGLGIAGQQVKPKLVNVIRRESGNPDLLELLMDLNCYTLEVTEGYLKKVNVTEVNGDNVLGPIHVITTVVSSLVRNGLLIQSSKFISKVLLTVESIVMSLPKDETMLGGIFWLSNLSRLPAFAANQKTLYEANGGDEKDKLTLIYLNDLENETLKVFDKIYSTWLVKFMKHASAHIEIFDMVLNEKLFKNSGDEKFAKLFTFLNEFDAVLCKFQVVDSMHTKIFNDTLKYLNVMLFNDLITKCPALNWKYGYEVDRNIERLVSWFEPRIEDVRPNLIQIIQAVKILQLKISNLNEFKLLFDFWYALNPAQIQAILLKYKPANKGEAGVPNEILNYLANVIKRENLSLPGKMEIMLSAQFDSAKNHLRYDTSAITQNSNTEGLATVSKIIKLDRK", "test": "SEC-MALS"}}}
{"binder": "B1", "values": [{"measurement": "stoichiometry N", "setting": "SEC-MALS", "result": 2}, {"measurement": "stoichiometry N", "setting": "[1]", "result": 2, "unit": "She3p per Myo4p"}]}
